Measurements: the Human Domainome abundance scans (Beltran et al. 2025)

B1: POU domain, class 4, transcription factor 3, residues 185 to 256; numbered along this chain, Q15319 (parent)
chain: RELEAFAERFKQRRIKLGVTQADVGAALANLKIPGVGSLSQSTICRFESLTLSHNNMIALKPVLQAWLEEAE

Variants of: B1
Assay: abundance fitness (aPCA) (normalised: wild type 0, dead -1); higher = more abundant; growth selection in yeast, the domain comes from the species named
Conditions: Homo sapiens

Abundance fitness, by site and new letter:
I33: N -0.341, M -0.283, T -0.197, L 0.062, V -0.515, Y -0.105, K -0.391, P -0.139, F -0.223, S -0.764
N56: G -0.035, C -0.036, D -0.355, K -0.109, W 0.101, T -0.588, Y -0.096, I -0.157, F -0.628, L 0.105, S 0.089
F47: M -0.543, W -0.508, S -0.747, V -0.718, I -0.836, Q -0.875, C -0.982, P -1.02, T -0.94, G -1.01, N -1.09, H -1.06, A -0.866
P62: N -0.371, A -0.376, R -0.376, F -0.461, W -0.689, I -0.753, T -0.221, K -0.177, D -0.413, M -0.56, Q -0.393, G -0.244, E -0.23, L -0.53, S -0.188, H -0.109, C -0.565, V -0.378
R46: Y -0.106, W -0.334, N 0.094, S 0.024, T -0.661, D 0.096, Q -0.011, A 0.031, E 0.025, M -0.184, L -0.184, K 0.055, H -0.056, I -0.806, G 0.125, P -1.17, F -0.519
K61: T -0.061, Q -0.222, Y -0.038, M 0.02, F -0.36, L -0.217, N -0.658, P -1.12, I -0.128, H -0.105
S42: M -0.1, T -0.116, P -0.428, N 0.06, Q 0.017, F -0.225, K 0.046, I -0.363
S49: T 0.037, Q -0.027, H -0.033, E 0.102, G -0.138, F -0.515, K -0.039, N -0.005, M -0.117, V -0.718, Y -0.209, R -0.136, P -0.957, D 0.067, C -0.127, W -0.884, A 0.016
S38: W -0.389, I -0.017, C -0.27, P 0.055, N 0.022, H -0.018, V 0.065, F 0.057, R -0.052, T 0.017, Q 0.029, A -0.346, L -0.031, Y -0.055, M -0.006
T51: C -0.121, F -0.578, P -1.19, M 0.096, G -0.174, W -0.406, L -0.13, A -0.041, V -0.112, S 0.056, Q -0.074, K 0.111, H -0.201, R 0.028, E -0.146
S53: K -0.222, R -0.229, H -0.174, P 0.042, T -0.208, Q -0.403, E -0.065, G -0.061, A 0.025
L31: Y -0.228, M -0.284, S -0.094, T -0.094, W -0.008, V 0.086, N -0.565, Q -0.202
L39: F -0.687, S -0.109, G -0.912, V 0.034, R -0.606, A -0.053, D -0.304, W -0.596, P 0.054
A59: L -0.393, G -0.085, S -0.514
T43: R -0.607, F -0.425, Q -0.105, H -0.296
